Positions count from the first letter of the chain named.
B1: cr944 (nucleic acid)
guide: GTTTAAGAGCTAAGCTGGAAACAGCATAGCAAGTTTAAATAAGGCTAGTCCGTTATCAACTCGAAAGAGTGGTACCAAGTTGGTACT
modifications: listed as DNA, chemistry not fully specified
B2: cr748 (nucleic acid)
guide: B1 guide with A65G, T73C, A77G, T81C, A85G
modifications: listed as DNA, chemistry not fully specified
B3: cr707 (nucleic acid)
guide: B1 guide with C62T, G67A, T73C, A77G, A78T, T81C, A85G
modifications: listed as DNA, chemistry not fully specified
B4: cr831 (nucleic acid)
guide: B1 guide with C60T, C62T, G67A, G69A, T73C, A77G, T81C, A85G
modifications: listed as DNA, chemistry not fully specified
B5: cr267 (nucleic acid)
guide: B1 guide with G18C, C62T, G67A, T73C, A77G, T81C, A85G
modifications: listed as DNA, chemistry not fully specified
B6: cr205 (nucleic acid)
guide: B1 guide with C60T, C62T, G67A, G69A, T73G, A77G, T81C, A85C
modifications: listed as DNA, chemistry not fully specified
B7: cr264 (nucleic acid)
guide: B1 guide with C62T, G67A, A68T, T73C, A77G, T81C, A85G
modifications: listed as DNA, chemistry not fully specified
B8: cr416 (nucleic acid)
guide: B1 guide with C62T, G67A, T73C, A74G, T84C, A85G
modifications: listed as DNA, chemistry not fully specified
B9: cr181 (nucleic acid)
guide: GTTTAAGAGCTAAGCTGGAAACAGCATAGCAAGTTTAAATAAGGTTAATCCGTTATCAATTTGAAAAAATGGCGCCGAGTCGGCGCT
modifications: listed as DNA, chemistry not fully specified
B10: cr835 (nucleic acid)
guide: B9 guide with T45C, A48G, T60C, A69G, G74A
modifications: listed as DNA, chemistry not fully specified
B11: cr646 (nucleic acid)
guide: B9 guide with T45C, A48G, T60A, A69T, G74T, C84A
modifications: listed as DNA, chemistry not fully specified
B12: cr372 (nucleic acid)
guide: B1 guide with T46G, C62T, G67A, T73C, A77G, T81C, A85G
modifications: listed as DNA, chemistry not fully specified
B13: cr938 (nucleic acid)
guide: B1 guide with A47G, C62T, G67A, T73C, A77G, T81C, A85G
modifications: listed as DNA, chemistry not fully specified
B14: cr397 (nucleic acid)
guide: B9 guide with T45C, A48G, T60A, A69T, G74A, C84T
modifications: listed as DNA, chemistry not fully specified
B15: cr167 (nucleic acid)
guide: B1 guide with T61C, C62T, G67A, T73C, A77G, T81C, A85G
modifications: listed as DNA, chemistry not fully specified
B16: cr131 (nucleic acid)
guide: B1 guide with C62T, A65G, G67A, T73C, C76A, A77G, T81C, G82T, A85G
modifications: chemistry not given here

Test system: K562 CRISPRi cells
Test: Constant region variant library pooled growth screen, K562
Format: cell-based, human
Settings: sgRNA constant region variants; activity relative to the original, un-modified constant region cr995
Summary of the method: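 Growth screens in K562 CRISPRi cells were harvested 4-8 days post-selection at >2000× library coverage. Each variant's phenotype was referenced to the unmodified constant region with the same targeting sequence.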

| Molecule | Mean relative activity |
| --- | --- |
| B1 | 1.065 |
| B2 | 1.146 |

Same assay, conditions: sgRNA constant region variants; activity relative to the un-modified constant region cr995

| Molecule | Mean relative activity |
| --- | --- |
| B3 | 0.9632 |
| B4 | 0.962 |
| B5 | 0.9552 |
| B6 | 0.9515 |
| B7 | 0.9513 |
| B8 | 0.9574 |
| B9 | 0.9506 |
| B10 | 0.9515 |
| B11 | 0.962 |
| B12 | 0.9545 |
| B13 | 0.9596 |
| B14 | 0.9508 |
| B15 | 0.9545 |
| B16 | 0.96 |
